Data as given in patent publication US20200262877A1, “ION CHANNEL-BINDING PEPTIDES AND METHODS OF USE THEREOF” (priority 2017, published 2020).

Legend:
5HT3a = biological target: T1, 5HT3a (Homo sapiens, UniProt P46098); test: Ion channel panel (IonWorks Barracuda): 5HT3a; format: cell-based
T1 construct: host or cells: HEK293 or CHO
T1 sequence (P46098 whole entry, looked up): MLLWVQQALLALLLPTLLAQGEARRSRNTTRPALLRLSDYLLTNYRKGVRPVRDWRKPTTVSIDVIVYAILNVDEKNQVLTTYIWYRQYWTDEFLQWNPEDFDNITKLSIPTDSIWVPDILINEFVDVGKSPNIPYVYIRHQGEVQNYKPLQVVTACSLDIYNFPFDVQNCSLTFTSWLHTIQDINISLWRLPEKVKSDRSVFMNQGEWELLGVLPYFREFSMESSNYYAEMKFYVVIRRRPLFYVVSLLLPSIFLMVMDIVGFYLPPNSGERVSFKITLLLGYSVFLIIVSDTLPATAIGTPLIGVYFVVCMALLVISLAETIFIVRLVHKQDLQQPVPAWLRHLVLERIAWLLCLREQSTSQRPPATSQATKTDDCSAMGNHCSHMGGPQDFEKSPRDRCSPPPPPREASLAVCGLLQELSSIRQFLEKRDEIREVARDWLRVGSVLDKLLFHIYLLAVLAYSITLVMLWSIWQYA
Outline: (§1)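 Transfected HEK293 or CHO cells were exposed for at least 5 min to peptides at 200 nM and 20 μM final, tested in duplicate, in HEPES-buffered physiological saline. Activation was taken as peptide-plus-agonist current over control current ×100, and inhibition as 1 minus that ratio ×100. Each channel's control was its own reference compound.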

α3β4 = biological target: T2, α3β4 (Homo sapiens, UniProt P30926+P32297); test: Ion channel panel (IonWorks Barracuda): α3β4; format: cell-based; details: 100% = no change, <100% = inhibition
T2 construct: host or cells: HEK293 or CHO
Outline: as §1

α4β2 = biological target: T3, α4β2 (Homo sapiens, UniProt P17787+P43681); test: Ion channel panel (IonWorks Barracuda): α4β2; format: cell-based; details: 100% = no change, <100% = inhibition
T3 construct: host or cells: HEK293 or CHO
Outline: as §1

Cav2.1 = biological target: T4, Cav2.1 (Homo sapiens, UniProt O00555); test: cell-based; details: 100% = no change, <100% = inhibition
T4 construct: host or cells: HEK293 or CHO
Outline: as §1

Cav2.2 = biological target: T5, Cav2.2 (Homo sapiens, UniProt Q00975); test: cell-based; details: 100% = no change, <100% = inhibition
T5 construct: host or cells: HEK293 or CHO
Outline: as §1

Kv2.1 = biological target: T6, Kv2.1 (Homo sapiens, UniProt Q14721); test: cell-based; details: 100% = no change, <100% = inhibition
T6 construct: host or cells: HEK293 or CHO
Outline: as §1

GABA = test: Ion channel panel (IonWorks Barracuda): GABA; format: cell-based; details: 100% = no change, <100% = inhibition
Outline: as §1

Nav1.5 = Nav1.5 (Homo sapiens, UniProt Q14524); test: in vitro; details: 100% = no change; for Activity of Nav1.5 with peptide, expressed as a percentage of the reference compound: peptide at 0.2 μM; for Activity of Nav1.5 with peptide (percentage of the reference compound): peptide at 20 μM
Outline: as §1

hERG = hERG (Homo sapiens, UniProt Q12809); test: in vitro; details: 100% = no change, <100% = inhibition
Outline: as §1

Kir2.1 = biological target: T7, Kir2.1 (Homo sapiens, UniProt P63252); test: Ion channel panel (IonWorks Barracuda): Kir2.1; format: cell-based; details: 100% = no change, <100% = inhibition
T7 construct: host or cells: HEK293 or CHO
Outline: as §1

Kv1.1 = biological target: T8, Kv1.1 (Homo sapiens, UniProt Q09470); test: cell-based; format: cell-based; details: 100% = no change, <100% = inhibition
T8 construct: host or cells: HEK293 or CHO
Outline: as §1

Kv1.2 = biological target: T9, Kv1.2 (Homo sapiens, UniProt P16389); test: cell-based; format: cell-based; details: 100% = no change, <100% = inhibition
T9 construct: host or cells: HEK293 or CHO
Outline: as §1

Kv1.3 = biological target: T10, Kv1.3 (Homo sapiens, UniProt P22001); test: cell-based; format: cell-based; details: 100% = no change, <100% = inhibition
T10 construct: host or cells: HEK293 or CHO
Outline: as §1

Nav1.7 = biological target: T11, Nav1.7 (Homo sapiens, UniProt Q15858); test: cell-based; format: cell-based; details: 100% = no change; for Activity of Nav1.7 with peptide, expressed as a percentage of the reference compound: peptide at 0.2 μM; for Activity of Nav1.7 with peptide (percentage of the reference compound): peptide at 20 μM
T11 construct: host or cells: HEK293 or CHO

NR2A = biological target: T12, NR2A (Homo sapiens, UniProt Q12879); test: Ion channel panel (IonWorks Barracuda): NR2A; format: cell-based; details: 100% = no change, <100% = inhibition
T12 construct: host or cells: HEK293 or CHO
Outline: as §1

NR2B = biological target: T13, NR2B (Homo sapiens, UniProt Q13224); test: Ion channel panel (IonWorks Barracuda): NR2B; format: cell-based; details: 100% = no change, <100% = inhibition
T13 construct: host or cells: HEK293 or CHO
Outline: as §1

TRPA1 = biological target: T14, TRPA1 (Homo sapiens, UniProt O75762); test: Ion channel panel (IonWorks Barracuda): TRPA1; format: cell-based; details: 100% = no change, <100% = inhibition
T14 construct: host or cells: HEK293 or CHO
Outline: as §1

TRPV1 = biological target: T15, TRPV1 (Homo sapiens, UniProt Q8NER1); test: Ion channel panel (IonWorks Barracuda): TRPV1; format: cell-based; details: 100% = no change, <100% = inhibition
T15 construct: host or cells: HEK293 or CHO
Outline: as §1

[1] = first of two Nav1.5 columns (probably TP1)
[2] = second of two Nav1.5 columns (probably TP2)
[3] = first of two Nav1.7 columns (probably TP1)
[4] = second of two Nav1.7 columns (probably TP2)

Chain of Nav1.5 (Q14524 whole entry): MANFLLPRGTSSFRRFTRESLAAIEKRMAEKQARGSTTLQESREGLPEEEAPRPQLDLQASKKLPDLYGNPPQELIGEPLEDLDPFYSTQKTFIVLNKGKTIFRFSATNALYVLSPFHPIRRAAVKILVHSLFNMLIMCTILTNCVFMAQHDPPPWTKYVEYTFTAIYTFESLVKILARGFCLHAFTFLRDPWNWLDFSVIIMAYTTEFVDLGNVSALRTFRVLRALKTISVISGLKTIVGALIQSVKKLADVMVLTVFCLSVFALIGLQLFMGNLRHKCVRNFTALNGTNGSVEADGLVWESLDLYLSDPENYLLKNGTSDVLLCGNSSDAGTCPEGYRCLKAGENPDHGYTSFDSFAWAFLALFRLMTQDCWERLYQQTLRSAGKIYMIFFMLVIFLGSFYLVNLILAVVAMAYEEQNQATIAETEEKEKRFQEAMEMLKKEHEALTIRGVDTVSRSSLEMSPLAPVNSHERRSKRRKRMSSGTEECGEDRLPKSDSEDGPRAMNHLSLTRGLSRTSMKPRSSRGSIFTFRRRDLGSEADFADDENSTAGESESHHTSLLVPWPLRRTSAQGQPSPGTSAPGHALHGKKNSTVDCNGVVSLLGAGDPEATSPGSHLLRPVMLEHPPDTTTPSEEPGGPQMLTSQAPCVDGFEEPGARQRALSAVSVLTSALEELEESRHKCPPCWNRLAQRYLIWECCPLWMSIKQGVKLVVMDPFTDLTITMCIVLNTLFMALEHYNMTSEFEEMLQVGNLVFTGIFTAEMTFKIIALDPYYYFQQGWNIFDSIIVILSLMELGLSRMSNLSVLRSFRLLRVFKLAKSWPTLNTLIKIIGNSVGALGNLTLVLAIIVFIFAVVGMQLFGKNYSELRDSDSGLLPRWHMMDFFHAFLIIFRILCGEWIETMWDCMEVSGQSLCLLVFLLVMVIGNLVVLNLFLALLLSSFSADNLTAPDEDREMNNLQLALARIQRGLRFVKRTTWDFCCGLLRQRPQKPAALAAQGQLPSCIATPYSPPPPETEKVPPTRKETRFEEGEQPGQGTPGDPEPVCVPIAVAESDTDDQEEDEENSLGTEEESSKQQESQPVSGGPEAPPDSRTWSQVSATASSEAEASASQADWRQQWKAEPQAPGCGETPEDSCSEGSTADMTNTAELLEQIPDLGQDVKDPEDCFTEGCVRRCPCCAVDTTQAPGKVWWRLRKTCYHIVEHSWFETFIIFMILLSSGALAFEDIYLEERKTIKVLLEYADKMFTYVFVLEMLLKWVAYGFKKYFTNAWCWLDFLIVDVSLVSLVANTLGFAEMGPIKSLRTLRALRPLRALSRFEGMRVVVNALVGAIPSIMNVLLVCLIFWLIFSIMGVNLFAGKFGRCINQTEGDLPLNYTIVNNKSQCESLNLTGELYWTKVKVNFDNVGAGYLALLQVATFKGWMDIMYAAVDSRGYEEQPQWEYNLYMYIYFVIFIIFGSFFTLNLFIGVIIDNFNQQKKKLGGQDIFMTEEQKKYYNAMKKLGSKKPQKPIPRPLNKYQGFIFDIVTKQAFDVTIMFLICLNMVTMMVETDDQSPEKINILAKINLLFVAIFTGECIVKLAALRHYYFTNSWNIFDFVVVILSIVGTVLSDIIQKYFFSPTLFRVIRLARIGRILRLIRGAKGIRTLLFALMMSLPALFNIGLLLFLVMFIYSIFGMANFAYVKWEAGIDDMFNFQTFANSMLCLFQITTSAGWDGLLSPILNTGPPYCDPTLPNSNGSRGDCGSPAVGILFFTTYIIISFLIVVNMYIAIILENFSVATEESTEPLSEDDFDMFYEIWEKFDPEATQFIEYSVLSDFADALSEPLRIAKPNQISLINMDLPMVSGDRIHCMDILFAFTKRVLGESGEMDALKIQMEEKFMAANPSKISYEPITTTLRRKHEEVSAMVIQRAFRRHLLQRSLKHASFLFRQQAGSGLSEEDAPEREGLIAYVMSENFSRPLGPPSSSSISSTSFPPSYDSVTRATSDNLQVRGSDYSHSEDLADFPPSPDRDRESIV
T11 sequence (Q15858 whole entry): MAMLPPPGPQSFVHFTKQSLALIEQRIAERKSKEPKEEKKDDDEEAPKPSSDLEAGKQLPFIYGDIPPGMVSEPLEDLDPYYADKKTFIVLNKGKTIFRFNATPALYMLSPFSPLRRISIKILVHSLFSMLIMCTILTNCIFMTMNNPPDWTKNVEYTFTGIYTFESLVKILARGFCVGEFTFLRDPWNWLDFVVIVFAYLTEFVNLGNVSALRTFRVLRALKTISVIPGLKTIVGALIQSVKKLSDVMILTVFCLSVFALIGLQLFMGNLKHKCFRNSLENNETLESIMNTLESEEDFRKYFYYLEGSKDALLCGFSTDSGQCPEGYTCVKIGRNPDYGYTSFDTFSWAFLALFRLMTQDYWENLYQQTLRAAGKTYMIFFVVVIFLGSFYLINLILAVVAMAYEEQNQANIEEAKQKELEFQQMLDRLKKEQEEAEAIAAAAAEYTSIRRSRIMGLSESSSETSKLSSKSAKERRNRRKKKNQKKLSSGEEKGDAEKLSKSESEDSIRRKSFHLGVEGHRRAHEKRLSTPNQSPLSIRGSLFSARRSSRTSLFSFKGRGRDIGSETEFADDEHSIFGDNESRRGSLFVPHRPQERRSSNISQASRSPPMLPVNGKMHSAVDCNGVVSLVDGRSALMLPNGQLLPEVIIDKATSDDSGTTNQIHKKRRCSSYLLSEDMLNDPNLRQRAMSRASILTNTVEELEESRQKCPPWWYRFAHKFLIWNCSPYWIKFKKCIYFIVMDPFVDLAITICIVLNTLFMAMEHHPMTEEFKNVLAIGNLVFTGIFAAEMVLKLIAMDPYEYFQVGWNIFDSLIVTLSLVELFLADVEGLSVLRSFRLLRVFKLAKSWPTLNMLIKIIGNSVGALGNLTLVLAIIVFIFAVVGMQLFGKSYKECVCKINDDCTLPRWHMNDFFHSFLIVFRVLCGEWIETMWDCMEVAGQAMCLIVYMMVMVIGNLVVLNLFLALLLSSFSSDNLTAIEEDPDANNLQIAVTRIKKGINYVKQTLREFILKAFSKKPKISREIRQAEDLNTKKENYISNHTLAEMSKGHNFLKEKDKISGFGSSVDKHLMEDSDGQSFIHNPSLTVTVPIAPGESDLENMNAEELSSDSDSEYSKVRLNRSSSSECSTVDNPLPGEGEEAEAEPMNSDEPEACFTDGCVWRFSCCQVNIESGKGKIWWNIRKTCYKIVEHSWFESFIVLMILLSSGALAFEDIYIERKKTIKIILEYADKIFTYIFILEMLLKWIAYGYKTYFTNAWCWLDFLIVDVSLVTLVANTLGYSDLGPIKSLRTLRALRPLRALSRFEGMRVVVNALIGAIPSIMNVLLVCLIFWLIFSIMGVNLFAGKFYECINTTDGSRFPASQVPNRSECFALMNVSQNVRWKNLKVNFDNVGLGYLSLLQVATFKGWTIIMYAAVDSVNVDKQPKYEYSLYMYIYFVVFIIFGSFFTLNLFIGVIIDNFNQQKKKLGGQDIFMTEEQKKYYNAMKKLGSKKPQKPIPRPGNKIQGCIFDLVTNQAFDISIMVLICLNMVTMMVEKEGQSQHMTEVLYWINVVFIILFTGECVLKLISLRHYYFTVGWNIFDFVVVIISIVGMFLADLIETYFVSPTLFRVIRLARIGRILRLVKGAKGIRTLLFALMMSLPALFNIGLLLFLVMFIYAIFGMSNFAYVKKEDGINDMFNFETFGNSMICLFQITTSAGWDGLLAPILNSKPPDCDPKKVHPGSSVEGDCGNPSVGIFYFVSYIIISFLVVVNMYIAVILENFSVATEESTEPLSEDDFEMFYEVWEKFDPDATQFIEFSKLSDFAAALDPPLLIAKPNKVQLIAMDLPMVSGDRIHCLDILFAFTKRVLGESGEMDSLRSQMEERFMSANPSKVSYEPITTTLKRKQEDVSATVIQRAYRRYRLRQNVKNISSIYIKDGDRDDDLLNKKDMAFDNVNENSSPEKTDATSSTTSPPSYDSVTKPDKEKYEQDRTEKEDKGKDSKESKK
T3 sequence (P43681 29-627): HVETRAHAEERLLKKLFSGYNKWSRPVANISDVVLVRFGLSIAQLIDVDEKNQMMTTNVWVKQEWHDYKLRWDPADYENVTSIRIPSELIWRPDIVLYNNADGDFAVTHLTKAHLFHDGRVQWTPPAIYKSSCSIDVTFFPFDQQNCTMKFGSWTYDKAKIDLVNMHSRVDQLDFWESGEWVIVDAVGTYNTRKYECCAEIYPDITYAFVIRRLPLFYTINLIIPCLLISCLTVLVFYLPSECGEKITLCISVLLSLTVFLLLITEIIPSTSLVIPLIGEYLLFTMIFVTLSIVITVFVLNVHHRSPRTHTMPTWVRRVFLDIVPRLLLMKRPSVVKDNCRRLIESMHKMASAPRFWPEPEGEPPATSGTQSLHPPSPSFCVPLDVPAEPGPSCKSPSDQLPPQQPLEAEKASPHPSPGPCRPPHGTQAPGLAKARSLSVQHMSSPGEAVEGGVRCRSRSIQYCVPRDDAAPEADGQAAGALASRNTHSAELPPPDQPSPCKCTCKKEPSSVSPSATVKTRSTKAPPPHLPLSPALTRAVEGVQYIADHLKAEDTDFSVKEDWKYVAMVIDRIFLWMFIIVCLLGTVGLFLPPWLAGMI
T3 sequence (P17787 26-502): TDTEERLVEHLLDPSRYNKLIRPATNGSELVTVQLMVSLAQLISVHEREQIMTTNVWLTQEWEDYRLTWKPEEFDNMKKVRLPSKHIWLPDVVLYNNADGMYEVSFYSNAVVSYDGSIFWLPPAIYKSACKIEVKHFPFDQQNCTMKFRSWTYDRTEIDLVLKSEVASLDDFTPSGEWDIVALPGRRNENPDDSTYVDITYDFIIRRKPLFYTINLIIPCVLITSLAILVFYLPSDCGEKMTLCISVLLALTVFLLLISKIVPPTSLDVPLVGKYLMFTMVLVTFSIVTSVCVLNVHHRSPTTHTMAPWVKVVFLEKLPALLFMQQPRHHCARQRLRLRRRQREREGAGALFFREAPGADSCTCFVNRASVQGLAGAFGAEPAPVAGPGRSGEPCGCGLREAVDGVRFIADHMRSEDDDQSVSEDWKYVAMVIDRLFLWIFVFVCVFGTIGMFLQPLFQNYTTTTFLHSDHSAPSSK

15 (GSAVCNLKRCQLSCRSLGLLGKCIGDKCECVKHG) [compound 15]
Activity of 5HT3a with peptide (percentage of the reference compound) (5HT3a): 74%
Activity of 5HT3a with peptide, expressed as a percentage of the reference compound (5HT3a): 86%
Activity of a3b4 with peptide, expressed as a percentage of the reference compound (α3β4; peptide at 0.2 μM): 91%
Activity of a3b4 with peptide (percentage of the reference compound) (α3β4; peptide at 20 μM): 86%
Activity of a4b2 with peptide, expressed as a percentage of the reference compound (α4β2; peptide at 0.2 μM): 71%
Activity of a4b2 with peptide (percentage of the reference compound) (α4β2; peptide at 20 μM): 95%
Activity of Cav2.1 with peptide, expressed as a percentage of the reference compound (Cav2.1; peptide at 0.2 μM): 106%
Activity of Cav2.1 with peptide (percentage of the reference compound) (Cav2.1; peptide at 20 μM): 86%
Activity of Cav2.2 with peptide, expressed as a percentage of the reference compound (Cav2.2; peptide at 0.2 μM): 105%
Activity of Cav2.2 with peptide (percentage of the reference compound) (Cav2.2; peptide at 20 μM): 106%
Activity of Kv2.1 with peptide, expressed as a percentage of the reference compound (Kv2.1; peptide at 0.2 μM): 91%
Activity of Kv2.1 with peptide (percentage of the reference compound) (Kv2.1; peptide at 20 μM): 88%
Activity of GABA with peptide, expressed as a percentage of the reference compound (GABA; peptide at 0.2 μM): 122%
Activity of GABA with peptide (percentage of the reference compound) (GABA; peptide at 20 μM): 97%
Activity of Nav1.5 with peptide, expressed as a percentage of the reference compound (Nav1.5; [1]): 90%
Activity of Nav1.5 with peptide, expressed as a percentage of the reference compound (Nav1.5; [2]): 91%
Activity of Nav1.5 with peptide (percentage of the reference compound) (Nav1.5; [1]): 78%
Activity of Nav1.5 with peptide (percentage of the reference compound) (Nav1.5; [2]): 79%
Activity of hERG with peptide, expressed as a percentage of the reference compound (hERG; peptide at 0.2 μM): 79%
Activity of hERG with peptide (percentage of the reference compound) (hERG; peptide at 20 μM): 67%
Activity of Kir2.1 with peptide, expressed as a percentage of the reference compound (Kir2.1; peptide at 0.2 μM): 107%
Activity of Kir2.1 with peptide (percentage of the reference compound) (Kir2.1; peptide at 20 μM): 88%
Activity of Kv1.1 with peptide, expressed as a percentage of the reference compound (Kv1.1; peptide at 0.2 μM): 69%
Activity of Kv1.1 with peptide (percentage of the reference compound) (Kv1.1; peptide at 20 μM): 72%
Activity of Kv1.2 with peptide, expressed as a percentage of the reference compound (Kv1.2; peptide at 0.2 μM): 77%
Activity of Kv1.2 with peptide (percentage of the reference compound) (Kv1.2; peptide at 20 μM): 76%
Activity of Kv1.3 with peptide, expressed as a percentage of the reference compound (Kv1.3; peptide at 0.2 μM): 86%
Activity of Kv1.3 with peptide (percentage of the reference compound) (Kv1.3; peptide at 20 μM): 90%
Activity of Nav1.7 with peptide, expressed as a percentage of the reference compound (Nav1.7; [3]): 91%
Activity of Nav1.7 with peptide, expressed as a percentage of the reference compound (Nav1.7; [4]): 97%
Activity of Nav1.7 with peptide (percentage of the reference compound) (Nav1.7; [3]): 75%
Activity of Nav1.7 with peptide (percentage of the reference compound) (Nav1.7; [4]): 58%
Activity of NR2A with peptide, expressed as a percentage of the reference compound (NR2A; peptide at 0.2 μM): 97%
Activity of NR2A with peptide (percentage of the reference compound) (NR2A; peptide at 20 μM): 76%
Activity of NR2B with peptide, expressed as a percentage of the reference compound (NR2B; peptide at 0.2 μM): 103%
Activity of NR2B with peptide (percentage of the reference compound) (NR2B; peptide at 20 μM): 88%
Activity of TRPA1 with peptide, expressed as a percentage of the reference compound (TRPA1; peptide at 0.2 μM): 114%
Activity of TRPA1 with peptide (percentage of the reference compound) (TRPA1; peptide at 20 μM): 76%
Activity of TRPV1 with peptide, expressed as a percentage of the reference compound (TRPV1; peptide at 0.2 μM): 124%
Activity of TRPV1 with peptide (percentage of the reference compound) (TRPV1; peptide at 20 μM): 99%
